Protein stability index data for 94 variants are collected here from the supplement of paper PMC10567573.

B1: TRIM14 (parent)
chain: REQADSCREQLDIMNDLSNRVWSI
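Also: lentivirally expressed fusions sorted by FACS into six bins by GFP to DsRed ratio, PSI derived from sequencing read proportions per bin multiplied by bin number.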

Variants of B1 are the subject of this data set. Put plainly: protein stability index of a GFP-peptide fusion (GPS, HEK-293T) (PSI 1-6); higher = more stable. The conditions noted are these: c terminus: a fixed tail appended.
As for REQADMCREQLDIMNDLSNRVWSI [S6M], the protein stability index turned out to be 1.93. In the case of REQADLCREQLDIMNDLSNRVWSI [S6L] it was 1.93; in that of REQADQCREQLDIMNDLSNRVWSI [S6Q], 2.21.

Take REQADKCREQLDIMNDLSNRVWSI [S6K]: the protein stability index is 1.78. For REQADPCREQLDIMNDLSNRVWSI [S6P], the protein stability index was determined as 2.35.

On to REQADRCREQLDIMNDLSNRVWSI [S6R], for which the protein stability index was determined as 1.86. Regarding REQADNCREQLDIMNDLSNRVWSI [S6N], the protein stability index stood at 2.68.

REQADYCREQLDIMNDLSNRVWSI [S6Y]: the protein stability index was 2.06. In the case of REQADGCREQLDIMNDLSNRVWSI [S6G] it was 2.42; in that of REQADVCREQLDIMNDLSNRVWSI [S6V], 1.85. In the case of REQADICREQLDIMNDLSNRVWSI [S6I], the protein stability index was determined as 2.35.

In the case of REQADFCREQLDIMNDLSNRVWSI [S6F], the protein stability index was found to be 1.91. In the case of REQADDCREQLDIMNDLSNRVWSI [S6D] it was 3.4. For the variant REQADECREQLDIMNDLSNRVWSI [S6E], the protein stability index stood at 2.77. In the case of REQADTCREQLDIMNDLSNRVWSI [S6T], the protein stability index turned out to be 1.6. The value for REQADWCREQLDIMNDLSNRVWSI [S6W] was 2. The value for REQADCCREQLDIMNDLSNRVWSI [S6C] was 2.01. On to REQADACREQLDIMNDLSNRVWSI [S6A], for which the protein stability index is 2.45.

Turning to REQADHCREQLDIMNDLSNRVWSI [S6H], the protein stability index worked out at 2.41. In the case of RHQADSCREQLDIMNDLSNRVWSI [E2H] it was 1.53; in that of RNQADSCREQLDIMNDLSNRVWSI [E2N], 2.46; in that of RTQADSCREQLDIMNDLSNRVWSI [E2T], 2.13.

Take RYQADSCREQLDIMNDLSNRVWSI [E2Y]: the protein stability index is 2.83. Take RSQADSCREQLDIMNDLSNRVWSI [E2S]: the protein stability index was 1.28. In the case of RWQADSCREQLDIMNDLSNRVWSI [E2W] it was 1.91; in that of RCQADSCREQLDIMNDLSNRVWSI [E2C], 1.95; in that of RDQADSCREQLDIMNDLSNRVWSI [E2D], 2.45. In the case of RLQADSCREQLDIMNDLSNRVWSI [E2L] it was 1.25. In the case of RFQADSCREQLDIMNDLSNRVWSI [E2F] it was 2.92. As for RVQADSCREQLDIMNDLSNRVWSI [E2V], the protein stability index was 1.98.

RAQADSCREQLDIMNDLSNRVWSI [E2A]: the protein stability index was 1.93.

RIQADSCREQLDIMNDLSNRVWSI [E2I]: the protein stability index was found to be 1.75.

For the variant RPQADSCREQLDIMNDLSNRVWSI [E2P], the protein stability index stood at 2.33. The value for RKQADSCREQLDIMNDLSNRVWSI [E2K] was 1.83; that for RQQADSCREQLDIMNDLSNRVWSI [E2Q] was 1.63. In the case of RGQADSCREQLDIMNDLSNRVWSI [E2G] it was 1.85; in that of RRQADSCREQLDIMNDLSNRVWSI [E2R], 1.66; in that of RMQADSCREQLDIMNDLSNRVWSI [E2M], 2.56.

As for REQAPSCREQLDIMNDLSNRVWSI [D5P], the protein stability index is 2.03. The value for REQAISCREQLDIMNDLSNRVWSI [D5I] was 2.84; that for REQAWSCREQLDIMNDLSNRVWSI [D5W] was 2.21. In the case of REQATSCREQLDIMNDLSNRVWSI [D5T] it was 1.99; in that of REQAASCREQLDIMNDLSNRVWSI [D5A], 1.95; in that of REQAKSCREQLDIMNDLSNRVWSI [D5K], 3.1.

Take REQAGSCREQLDIMNDLSNRVWSI [D5G]: the protein stability index came out at 1.55. The value for REQANSCREQLDIMNDLSNRVWSI [D5N] was 2.88; that for REQALSCREQLDIMNDLSNRVWSI [D5L] was 3.46; that for REQAESCREQLDIMNDLSNRVWSI [D5E] was 2.15. In the case of REQAVSCREQLDIMNDLSNRVWSI [D5V] it was 2.09; in that of REQAYSCREQLDIMNDLSNRVWSI [D5Y], 1.2; in that of REQARSCREQLDIMNDLSNRVWSI [D5R], 3.62. The value for REQASSCREQLDIMNDLSNRVWSI [D5S] was 1.6; that for REQACSCREQLDIMNDLSNRVWSI [D5C] was 1.59.

REQAMSCREQLDIMNDLSNRVWSI [D5M]: the protein stability index stood at 2.1. For REQAFSCREQLDIMNDLSNRVWSI [D5F], the protein stability index turned out to be 1.55. In the case of REQAHSCREQLDIMNDLSNRVWSI [D5H] it was 2.23; in that of REQAQSCREQLDIMNDLSNRVWSI [D5Q], 2.14. In the case of REQADSKREQLDIMNDLSNRVWSI [C7K] it was 3.

With REQADSRREQLDIMNDLSNRVWSI [C7R], the protein stability index came out at 3.42. The value for REQADSNREQLDIMNDLSNRVWSI [C7N] was 3.52. In the case of REQADSYREQLDIMNDLSNRVWSI [C7Y] it was 2.2; in that of REQADSDREQLDIMNDLSNRVWSI [C7D], 3.5. In the case of REQADSGREQLDIMNDLSNRVWSI [C7G] it was 3.05; in that of REQADSSREQLDIMNDLSNRVWSI [C7S], 3.21.

Regarding REQADSIREQLDIMNDLSNRVWSI [C7I], the protein stability index was 2.12. On to REQADSFREQLDIMNDLSNRVWSI [C7F], for which the protein stability index is 2.21. Turning to REQADSWREQLDIMNDLSNRVWSI [C7W], the protein stability index was found to be 2.23. In the case of REQADSMREQLDIMNDLSNRVWSI [C7M] it was 2.52; in that of REQADSLREQLDIMNDLSNRVWSI [C7L], 2.27. In the case of REQADSAREQLDIMNDLSNRVWSI [C7A] it was 2.86; in that of REQADSEREQLDIMNDLSNRVWSI [C7E], 3.96; in that of REQADSVREQLDIMNDLSNRVWSI [C7V], 2.76.

For REQADSPREQLDIMNDLSNRVWSI [C7P], the protein stability index was 2.74. The value for REQADSQREQLDIMNDLSNRVWSI [C7Q] was 4.24; that for REQADSTREQLDIMNDLSNRVWSI [C7T] was 3.04; that for REQADSHREQLDIMNDLSNRVWSI [C7H] was 3.02. The value for RETADSCREQLDIMNDLSNRVWSI [Q3T] was 2.11; that for RERADSCREQLDIMNDLSNRVWSI [Q3R] was 2.42.

REPADSCREQLDIMNDLSNRVWSI [Q3P]: the protein stability index was determined as 2.15. In the case of REWADSCREQLDIMNDLSNRVWSI [Q3W] it was 1.88; in that of REIADSCREQLDIMNDLSNRVWSI [Q3I], 2.04; in that of REKADSCREQLDIMNDLSNRVWSI [Q3K], 1.59. In the case of REEADSCREQLDIMNDLSNRVWSI [Q3E] it was 3.01.

For the variant REMADSCREQLDIMNDLSNRVWSI [Q3M], the protein stability index came out at 1.75. The value for RESADSCREQLDIMNDLSNRVWSI [Q3S] was 1.77. Regarding REGADSCREQLDIMNDLSNRVWSI [Q3G], the protein stability index was determined as 1.82. The value for RELADSCREQLDIMNDLSNRVWSI [Q3L] was 1.68; that for RENADSCREQLDIMNDLSNRVWSI [Q3N] was 2.13; that for RECADSCREQLDIMNDLSNRVWSI [Q3C] was 2.08. In the case of REHADSCREQLDIMNDLSNRVWSI [Q3H] it was 1.87; in that of REAADSCREQLDIMNDLSNRVWSI [Q3A], 2.48. The value for REDADSCREQLDIMNDLSNRVWSI [Q3D] was 2.8. Regarding REFADSCREQLDIMNDLSNRVWSI [Q3F], the protein stability index stood at 1.82.

Turning to REVADSCREQLDIMNDLSNRVWSI [Q3V], the protein stability index came to 1.24.
